This note sets out measurements from patent publication US20250186541A1, “DLL3 TARGETING PEPTIDES AND CONSTRUCTS THEREOF” (MARIANA ONCOLOGY INC., priority 2023, published 2025).

The chains are these.
T1: Biotinylated human DLL3 (human, UniProt Q9NYJ7 27-492, biotinylated (site not stated))
T1 construct: also called Delta-like ligand 3; Delta Like Canonical Notch Ligand 3
T1 sequence (looked up): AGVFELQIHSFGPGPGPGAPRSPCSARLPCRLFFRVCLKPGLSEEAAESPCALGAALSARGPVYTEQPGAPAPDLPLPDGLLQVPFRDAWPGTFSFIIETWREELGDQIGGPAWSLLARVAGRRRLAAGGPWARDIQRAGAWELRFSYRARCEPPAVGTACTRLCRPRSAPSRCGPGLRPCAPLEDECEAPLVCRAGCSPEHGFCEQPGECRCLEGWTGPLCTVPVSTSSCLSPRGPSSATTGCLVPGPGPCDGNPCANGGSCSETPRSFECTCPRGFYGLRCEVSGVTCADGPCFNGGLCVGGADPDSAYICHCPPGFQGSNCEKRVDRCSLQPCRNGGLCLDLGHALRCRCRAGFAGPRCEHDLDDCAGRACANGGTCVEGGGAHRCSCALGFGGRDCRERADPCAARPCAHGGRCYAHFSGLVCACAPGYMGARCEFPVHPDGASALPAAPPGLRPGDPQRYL

B1: Cpd #90 (peptide)
peptide: Ac-SDCWLQWK(DOTA)CPFD-NH2
modifications: disulfide 3-9
SMILES: CC(=O)N[C@@H](CO)C(=O)N[C@@H](CC(=O)O)C(=O)N[C@H]1CSSC[C@@H](C(=O)N2CCC[C@H]2C(=O)N[C@@H](Cc2ccccc2)C(=O)N[C@@H](CC(=O)O)C(N)=O)NC(=O)[C@H](CCCCNC(=O)CN2CCN(CC(=O)O)CCN(CC(=O)O)CCN(CC(=O)O)CC2)NC(=O)[C@H](Cc2c[nH]c3ccccc23)NC(=O)[C@H](CCC(N)=O)NC(=O)[C@H](CC(C)C)NC(=O)[C@H](Cc2c[nH]c3ccccc23)NC1=O
B2: Cpd #98 (peptide)
peptide: Ac-[Chg]SDCWK(DOTA)QWNCPFD-NH2
modifications: disulfide 4-10
SMILES: CC(=O)N[C@H](C(=O)N[C@@H](CO)C(=O)N[C@@H](CC(=O)O)C(=O)N[C@H]1CSSC[C@@H](C(=O)N2CCC[C@H]2C(=O)N[C@@H](Cc2ccccc2)C(=O)N[C@@H](CC(=O)O)C(N)=O)NC(=O)[C@H](CC(N)=O)NC(=O)[C@H](Cc2c[nH]c3ccccc23)NC(=O)[C@H](CCC(N)=O)NC(=O)[C@H](CCCCNC(=O)CN2CCN(CC(=O)O)CCN(CC(=O)O)CCN(CC(=O)O)CC2)NC(=O)[C@H](Cc2c[nH]c3ccccc23)NC1=O)C1CCCCC1
B3: Cpd #112 (peptide)
peptide: Ac-[Chg]SDC[1Nal]L[3Pal]WNCPFD[dK](DOTA)-NH2
modifications: disulfide 4-10
SMILES: CC(=O)N[C@H](C(=O)N[C@@H](CO)C(=O)N[C@@H](CC(=O)O)C(=O)N[C@H]1CSSC[C@@H](C(=O)N2CCC[C@H]2C(=O)N[C@@H](Cc2ccccc2)C(=O)N[C@@H](CC(=O)O)C(=O)N[C@H](CCCCNC(=O)CN2CCN(CC(=O)O)CCN(CC(=O)O)CCN(CC(=O)O)CC2)C(N)=O)NC(=O)[C@H](CC(N)=O)NC(=O)[C@H](Cc2c[nH]c3ccccc23)NC(=O)[C@H](Cc2cccnc2)NC(=O)[C@H](CC(C)C)NC(=O)[C@H](Cc2cccc3ccccc23)NC1=O)C1CCCCC1
B4: Cpd #62 (peptide)
peptide: Ac-MSDCWLQ[2Nal]NCPFD[dK](DOTA)-NH2
modifications: disulfide 4-10
SMILES: CSCC[C@H](NC(C)=O)C(=O)N[C@@H](CO)C(=O)N[C@@H](CC(=O)O)C(=O)N[C@H]1CSSC[C@@H](C(=O)N2CCC[C@H]2C(=O)N[C@@H](Cc2ccccc2)C(=O)N[C@@H](CC(=O)O)C(=O)N[C@H](CCCCNC(=O)CN2CCN(CC(=O)O)CCN(CC(=O)O)CCN(CC(=O)O)CC2)C(N)=O)NC(=O)[C@H](CC(N)=O)NC(=O)[C@H](Cc2ccc3ccccc3c2)NC(=O)[C@H](CCC(N)=O)NC(=O)[C@H](CC(C)C)NC(=O)[C@H](Cc2c[nH]c3ccccc23)NC1=O
B5: Cpd #91 (peptide)
peptide: Ac-SK(DOTA)CWLQWNCPFD-NH2
modifications: disulfide 3-9
SMILES: CC(=O)N[C@@H](CO)C(=O)N[C@@H](CCCCNC(=O)CN1CCN(CC(=O)O)CCN(CC(=O)O)CCN(CC(=O)O)CC1)C(=O)N[C@H]1CSSC[C@@H](C(=O)N2CCC[C@H]2C(=O)N[C@@H](Cc2ccccc2)C(=O)N[C@@H](CC(=O)O)C(N)=O)NC(=O)[C@H](CC(N)=O)NC(=O)[C@H](Cc2c[nH]c3ccccc23)NC(=O)[C@H](CCC(N)=O)NC(=O)[C@H](CC(C)C)NC(=O)[C@H](Cc2c[nH]c3ccccc23)NC1=O
B6: Cpd #63 (peptide)
peptide: Ac-MSDCWLQ[hPhe]NCPFD[dK](DOTA)-NH2
modifications: disulfide 4-10
SMILES: CSCC[C@H](NC(C)=O)C(=O)N[C@@H](CO)C(=O)N[C@@H](CC(=O)O)C(=O)N[C@H]1CSSC[C@@H](C(=O)N2CCC[C@H]2C(=O)N[C@@H](Cc2ccccc2)C(=O)N[C@@H](CC(=O)O)C(=O)N[C@H](CCCCNC(=O)CN2CCN(CC(=O)O)CCN(CC(=O)O)CCN(CC(=O)O)CC2)C(N)=O)NC(=O)[C@H](CC(N)=O)NC(=O)[C@H](CCc2ccccc2)NC(=O)[C@H](CCC(N)=O)NC(=O)[C@H](CC(C)C)NC(=O)[C@H](Cc2c[nH]c3ccccc23)NC1=O
B7: Cpd #113 (peptide)
peptide: Ac-[Chg]SDC[1Nal]L[4Pal]WNCPFD[dK](DOTA)-NH2
modifications: disulfide 4-10
SMILES: CC(=O)N[C@H](C(=O)N[C@@H](CO)C(=O)N[C@@H](CC(=O)O)C(=O)N[C@H]1CSSC[C@@H](C(=O)N2CCC[C@H]2C(=O)N[C@@H](Cc2ccccc2)C(=O)N[C@@H](CC(=O)O)C(=O)N[C@H](CCCCNC(=O)CN2CCN(CC(=O)O)CCN(CC(=O)O)CCN(CC(=O)O)CC2)C(N)=O)NC(=O)[C@H](CC(N)=O)NC(=O)[C@H](Cc2c[nH]c3ccccc23)NC(=O)[C@H](Cc2ccncc2)NC(=O)[C@H](CC(C)C)NC(=O)[C@H](Cc2cccc3ccccc23)NC1=O)C1CCCCC1
B8: Cpd #96 (peptide)
peptide: Ac-[Chg]SK(DOTA)CWLQWNCPFD-NH2
modifications: disulfide 4-10
SMILES: CC(=O)N[C@H](C(=O)N[C@@H](CO)C(=O)N[C@@H](CCCCNC(=O)CN1CCN(CC(=O)O)CCN(CC(=O)O)CCN(CC(=O)O)CC1)C(=O)N[C@H]1CSSC[C@@H](C(=O)N2CCC[C@H]2C(=O)N[C@@H](Cc2ccccc2)C(=O)N[C@@H](CC(=O)O)C(N)=O)NC(=O)[C@H](CC(N)=O)NC(=O)[C@H](Cc2c[nH]c3ccccc23)NC(=O)[C@H](CCC(N)=O)NC(=O)[C@H](CC(C)C)NC(=O)[C@H](Cc2c[nH]c3ccccc23)NC1=O)C1CCCCC1

Numbered stars: 1 amine (or outer) side, 2 acyl side, 3 side chain; on linkers, the order of the positions; unused ones are H or OH. Bridge positions count the residues as written; N and C are the ends. Square brackets hold non-standard residues; d marks the D form. Side chains are listed from the residue outwards. * marks the point of attachment. Ala(piperidin-4-yl) = O=C([C@H](CC1CCN([*:3])CC1)N[*:1])[*:2]; DOTA = O=C(O)CN1CCN(CC(=O)O)CCN(CC(=O)*)CCN(CC(=O)O)CC1; Phe(4-CF3) = N[C@@H](Cc1ccc(C(F)(F)F)cc1)C(=O)O; Trp(7-aza) = N[C@@H](Cc1c[nH]c2ncccc12)C(=O)O; γGlu = O=C(O)[C@H](CCC(=O)[*:2])N[*:1]; 1Nal = N[C@@H](Cc1cccc2ccccc12)C(=O)O; 2Nal = N[C@@H](Cc1ccc2ccccc2c1)C(=O)O; hPhe = N[C@@H](CCc1ccccc1)C(=O)O; tBuAla = CC(C)(C)C[C@H](N)C(=O)O; 3Pal = N[C@@H](Cc1cccnc1)C(=O)O; 4Pal = N[C@@H](Cc1ccncc1)C(=O)O; Cha = N[C@@H](CC1CCCCC1)C(=O)O; NMeL = CN[C@@H](CC(C)C)C(=O)O; Cba = N[C@@H](CC1CCC1)C(=O)O; Chg = N[C@H](C(=O)O)C1CCCCC1; dNle = CCCC[C@@H](N)C(=O)O; Nle = CCCC[C@H](N)C(=O)O; dNMeA = CN[C@H](C)C(=O)O; Ahx = NCCCCCC(=O)O Some results are limits rather than exact numbers.

In the experiment the target is T1, Biotinylated human DLL3. As to the kind of experiment: SPR, biotin-hDLL3 on SA chip.
Take B1: the dissociation constant Kd is above 300 nM.
Next, {hexanoic acid}-SDCWLQWNCPFD[dK](DOTA)-NH2 (disulfide 3-9) [Cpd #75]: 9.6 nM.
Consider Ac-[dA][dS]DC[1Nal]LQWNCPFD[dK](DOTA)-NH2 (disulfide 4-10) [Cpd #108], for which the Kd came out at 2.89 nM.
Then Ac-[Chg]SDC[1Nal]LQWNC[dNMeA]FD[dK](DOTA)-NH2 (disulfide 4-10) [Cpd #94], with 0.54 nM; and Ac-MSDCW[tBuAla]QWNCPFD[dK](DOTA)-NH2 (disulfide 4-10) [Cpd #67], with 4.03 nM.
Turning to Ac-[Chg][dS]DC[1Nal]LQWNCPFD[dK](DOTA)-NH2 (disulfide 4-10) [Cpd #106], the dissociation constant (Kd) was determined as 1.2 nM.
In the case of Ac-MSDCW[Cba]QWNCPFD[dK](DOTA)-NH2 (disulfide 4-10) [Cpd #70], binding was put at a Kd of 6.95 nM.
For Ac-MSDCW[Cha]QWNCPFD[dK](DOTA)-NH2 (disulfide 4-10) [Cpd #69], the Kd worked out at 16.4 nM.
Molecule B2 had a Kd of 93 nM.
The molecule Ac-MSDCW[Nle]QWNCPFD[dK](DOTA)-NH2 (disulfide 4-10) [Cpd #68] displayed a Kd of 15.8 nM.
Next, {DOTA-Ahx}-SDCW[NMeL]QWNCPFD-NH2 (disulfide 3-9) [Cpd #92]: 5.56 nM; Ac-MSDCWLQ[Phe(4-CF3)]NCPFD[dK](DOTA)-NH2 (disulfide 4-10) [Cpd #65]: 32.4 nM; Ac-[Chg]SDC[1Nal]L[Ala(piperidin-4-yl)]WNCPFD[dK](DOTA)-NH2 (disulfide 4-10) [Cpd #111]: 1.24 nM.
Turning to B3, the Kd turned out to be 2.56 nM.
Consider Ac-[Chg]SDC[1Nal]LQWNCPFD[dK](DOTA)-NH2 (disulfide 4-10) [Cpd #105], for which the Kd is 0.59 nM.
As to Ac-SDCWLK(DOTA)WNCPFD-NH2 (disulfide 3-9) [Cpd #87], the Kd was 33.3 nM.
Then B4, with 2.5 nM.
In the case of Ac-SDCWLQWNCPFD[dK]([γGlu-DOTA])-NH2 (disulfide 3-9) [Cpd #88], the Kd was 9.7 nM.
Ac-[dE]SDCWLQWNCPFD[dK](DOTA)-NH2 (disulfide 4-10) [Cpd #82]: the dissociation constant (Kd) turned out to be 17.1 nM.
In the case of B5, the Kd amounted to 95.7 nM.
With Ac-MSDCW[Chg]QWNCPFD[dK](DOTA)-NH2 (disulfide 4-10) [Cpd #71], the affinity, expressed as Kd, was 4.52 nM.
For the molecule Ac-MSDCWLQ[Trp(7-aza)]NCPFD[dK](DOTA)-NH2 (disulfide 4-10) [Cpd #64], the Kd came to 20.1 nM.
B6 yielded a Kd of 31.3 nM.
Then Ac-[Chg]SDCWLQWNCPFD[dK](DOTA)-NH2 (disulfide 4-10) [Cpd #77], with 7.4 nM; and Ac-[dNle][dS]DC[1Nal]LQWNCPFD[dK](DOTA)-NH2 (disulfide 4-10) [Cpd #107], with 1.9 nM; and B7, with 0.89 nM.
Take B8: binding was characterised by a dissociation constant (Kd) of 145 nM.

In general, Kd refers to the constant that tells how readily two partners part at equilibrium. A lower Kd goes with tighter binding.
